Assays:
HeLa Kyoto [1] = assay: solubility in G1/S (NP-40 vs SDS abundance) (log2 ratio); higher = more soluble; settings: cell cycle stage: G1/S
HeLa Kyoto [2] = assay: solubility change mitosis vs G1/S (difference of NP-40 vs SDS log2 ratios) (log2 ratio difference); higher = more soluble in mitosis
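Throughout, for solubility change mitosis vs G1/S (difference of NP-40 vs SDS log2 ratios): synchronized HeLa Kyoto cells (double thymidine block for G1/S, nocodazole release for mitosis), protein amounts in NP-40 versus SDS lysates quantified by mass spectrometry, three biological replicates.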
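Throughout, for solubility in G1/S (NP-40 vs SDS abundance): HeLa Kyoto cells arrested at G1/S by double thymidine block, proteins quantified by TMT10plex mass spectrometry in mild NP-40 versus SDS extracts, three biological replicates.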

| Sequence | solubility in G1/S (log2) (HeLa Kyoto [1]) | solubility change mitosis (log2) (HeLa Kyoto [2]) |
| --- | --- | --- |
| MEESMEEEEGGSYEAMMDDQNHNNWEAAVDGFRQPLPPPPPPSSIPAPAREPPGGQLLAVPAVSVDRKGPKEGLPMGPQPPPEANGVIMMLKSCDAAAAVAKAAPAPTASSTININTSTSKFLMNVITIEDYKSTYWPKLDGAIDQLLTQSPGDYIPISYEQIYSCVYKCVCQQHSEQMYSDLIKKITNHLERVSKELQASPPDLYIERFNIALGQYMGALQSIVPLFIYMNKFYIETKLNRDLKDDLIKLFTEHVAEKHIYSLMPLLLEAQSTPFQVTPSTMANIVKGLYTLRPEWVQMAPTLFSKFIPNILPPAVESELSEYAAQDQKFQRELIQNGFTRGDQSRKRAGDELAYNSSSACASSRGYR [CACUL1] | 0.278 | 0.103 |
| MEFLLGNPFSTPVGQCLEKATDGSLQSEDWTLNMEICDIINETEEGPKDAIRALKKRLNGNRNYREVMLALTVLETCVKNCGHRFHILVANRDFIDSVLVKIISPKNNPPTIVQDKVLALIQAWADAFRSSPDLTGVVHIYEELKRKGVEFPMADLDALSPIHTPQRSVPEVDPAATMPRSQSQQRTSAGSYSSPPPAPYSAPQAPALSVTGPITANSEQIARLRSELDVVRGNTKVMSEMLTEMVPGQEDSSDLELLQELNRTCRAMQQRIVELISRVSNEEVTEELLHVNDDLNNVFLRYERFERYRSGRSVQNASNGVLNEVTEDNLIDLGPGSPAVVSPMVGNTAPPSSLSSQLAGLDLGTESVSGTLSSLQQCNPRDGFDMFAQTRGNSLAEQRKTVTYEDPQAVGGLASALDNRKQSSEGIPVAQPSVMDDIEVWLRTDLKGDDLEEGVTSEEFDKFLEERAKAAEMVPDLPSPPMEAPAPASNPSGRKKPERSEDALFAL [TOM1L2] | 0.292 | -0.0085 |
| MEGESSRFEIHTPVSDKKKKKCSIHKERPQKHSHEIFRDSSLVNEQSQITRRKKRKKDFQHLISSPLKKSRICDETANATSTLKKRKKRRYSALEVDEEAGVTVVLVDKENINNTPKHFRKDVDVVCVDMSIEQKLPRKPKTDKFQVLAKSHAHKSEALHSKVREKKNKKHQRKAASWESQRARDTLPQSESHQEESWLSVGPGGEITELPASAHKNKSKKKKKKSSNREYETLAMPEGSQAGREAGTDMQESQPTVGLDDETPQLLGPTHKKKSKKKKKKKSNHQEFEALAMPEGSQVGSEVGADMQESRPAVGLHGETAGIPAPAYKNKSKKKKKKSNHQEFEAVAMPESLESAYPEGSQVGSEVGTVEGSTALKGFKESNSTKKKSKKRKLTSVKRARVSGDDFSVPSKNSESTLFDSVEGDGAMMEEGVKSRPRQKKTQACLASKHVQEAPRLEPANEEHNVETAEDSEIRYLSADSGDADDSDADLGSAVKQLQEFIPNIKDRATSTIKRMYRDDLERFKEFKAQGVAIKFGKFSVKENKQLEKNVEDFLALTGIESADKLLYTDRYPEEKSVITNLKRRYSFRLHIGRNIARPWKLIYYRAKKMFDVNNYKGRYSEGDTEKLKMYHSLLGNDWKTIGEMVARSSLSVALKFSQISSQRNRGAWSKSETRKLIKAVEEVILKKMSPQELKEVDSKLQENPESCLSIVREKLYKGISWVEVEAKVQTRNWMQCKSKWTEILTKRMTNGRRIYYGMNALRAKVSLIERLYEINVEDTNEIDWEDLASAIGDVPPSYVQTKFSRLKAVYVPFWQKKTFPEIIDYLYETTLPLLKEKLEKMMEKKGTKIQTPAAPKQVFPFRDIFYYEDDSEGEDIEKESEGQAPCMAHACNSSTLGGQGRWII [TTF1] | -1.02 | 0.169 |
| MEGSFSDGGALPEGLAEEAEPQGAAWSGDSGTVSQSHSSASGPWEDEGAEDGAPGRDLPLLRRAAAGYAACLLPGAGARPEVEALDASLEDLLTRVDEFVGMLDMLRGDSSHVVSEGVPRIHAKAAEMRRIYSRIDRLEAFVRMVGGRVARMEEQVTKAEAELGTFPRAFKKLLHTMNVPSLFSKSAPSRPQQAGYEAPVLFRTEDYFPCCSERPQL [BLOC1S4] | 0.477 | 0.323 |
| MEKMSRVTTALGGSVLTGRTMHCHLDAPANAISVCRDAAQVVVAGRSIFKIYAIEEEQFVEKLNLRVGRKPSLNLSCADVVWHQMDENLLATAATNGVVVTWNLGRPSRNKQDQLFTEHKRTVNKVCFHPTEAHVLLSGSQDGFMKCFDLRRKDSVSTFSGQSESVRDVQFSIRDYFTFASTFENGNVQLWDIRRPDRCERMFTAHNGPVFCCDWHPEDRGWLATGGRDKMVKVWDMTTHRAKEMHCVQTIASVARVKWRPECRHHLATCSMMVDHNIYVWDVRRPFVPAAMFEEHRDVTTGIAWRHPHDPSFLLSGSKDSSLCQHLFRDASQPVERANPEGLCYGLFGDLAFAAKESLVAAESGRKPYTGDRRHPIFFKRKLDPAEPFAGLASSALSVFETEPGGGGMRWFVDTAERYALAGRPLAELCDHNAKVARELGRNQVAQTWTMLRIIYCSPGLVPTANLNHSVGKGGSCGLPLMNSFNLKDMAPGLGSETRLDRSKGDARSDTVLLDSSATLITNEDNEETEGSDVPADYLLGDVEGEEDELYLLDPEHAHPEDPECVLPQEAFPLRHEIVDTPPGPEHLQDKADSPHVSGSEADVASLAPVDSSFSLLSVSHALYDSRLPPDFFGVLVRDMLHFYAEQGDVQMAVSVLIVLGERVRKDIDEQTQEHWYTSYIDLLQRFRLWNVSNEVVKLSTSRAVSCLNQASTTLHVNCSHCKRPMSSRGWVCDRCHRCASMCAVCHHVVKGLFVWCQGCSHGGHLQHIMKWLEGSSHCPAGCGHLCEYS [WDR24] | -0.232 | -0.106 |
| MELATRYQIPKEVADIFNAPSDDEEFVGFRDDVPMETLSSEESCDSFDSLESGKQQDVRFHSKYFTEELRRIFIEDTDSETEDFAGFTQSDLNGKTNPEVMVVESDLSDDGKASLVSEEEEDEEEDKATPRRSRSRRSSIGLRVAFQFPTKKLANKPDKNSSSEQLFSSARLQNEKKTILERKKDCRQVIQREDSTSESEDDSRDESQESSDALLKRTMNIKENKAMLAQLLAELNSMPDFFPVRTPTSASRKKTVRRAFSEGQITRRMNPTRSARPPEKFALENFTVSAAKFAEEFYSFRRRKTIGGKCREYRRRHRISSFRPVEDITEEDLENVAITVRDKIYDKVLGNTCHQCRQKTIDTKTVCRNQGCCGVRGQFCGPCLRNRYGEDVRSALLDPDWVCPPCRGICNCSYCRKRDGRCATGILIHLAKFYGYDNVKEYLESLQKELVEDN [CDCA7L] | -0.846 | 0.727 |
| MELGKGKLLRTGLNALHQAVHPIHGLAWTDGNQVVLTDLRLHSGEVKFGDSKVIGQFECVCGLSWAPPVADDTPVLLAVQHEKHVTVWQLCPSPMESSKWLTSQTCEIRGSLPILPQGCVWHPKCAILTVLTAQDVSIFPNVHSDDSQVKADINTQGRIHCACWTQDGLRLVVAVGSSLHSYIWDSAQKTLHRCSSCLVFDVDSHVCSITATVDSQVAIATELPLDKICGLNASETFNIPPNSKDMTPYALPVIGEVRSMDKEATDSETNSEVSVSSSYLEPLDLTHIHFNQHKSEGNSLICLRKKDYLTGTGQDSSHLVLVTFKKAVTMTRKVTIPGILVPDLIAFNLKAHVVAVASNTCNIILIYSVIPSSVPNIQQIRLENTERPKGICFLTDQLLLILVGKQKLTDTTFLPSSKSDQYAISLIVREIMLEEEPSITSGESQTTYSTFSAPLNKANRKKLIESLSPDFCHQNKGLLLTVNTSSQNGRPGRTLIKEIQSPLSSICDGSIALDAEPVTQPASLPRHSSTPDHTSTLEPPRLPQRKNLQSEKETYQLSKEVEILSRNLVEMQRCLSELTNRLHNGKKSSSVYPLSQDLPYVHIIYQKPYYLGPVVEKRAVLLCDGKLRLSTVQQTFGLSLIEMLHDSHWILLSADSEGFIPLTFTATQEIIIRDGSLSRSDVFRDSFSHSPGAVSSLKVFTGLAAPSLDTTGCCNHVDGMA [C2ORF44] | -0.00732 | -0.0919 |

Source: the supplement of paper PMC5998384
